# Data taken from the supplement of paper PMC9876800.
# System: peptide library, one residue held at a place counted from the S/T acceptor
# Experiment: relative phosphorylation of the sub-library (ratio to the mean residue at this position); human; higher = residue favoured
# Conditions: M fixed; at -1
# Outline: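 Spots on streptavidin membranes were phosphorimaged and quantified by densitometry to measure phosphorylation of biotinylated degenerate peptide sub-libraries by purified recombinant kinases, human or orthologue constructs. The reactions ran in 384-well plates for 90 min under kinase-specific conditions, with peptides at 50 μM and 50 μM ATP spiked with γ-32P-ATP. Relative sub-library phosphorylation is the ratio to the mean residue at that position.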
# Chain of ACVR1B, construct: aa150-end (P36896 150-505, looked up): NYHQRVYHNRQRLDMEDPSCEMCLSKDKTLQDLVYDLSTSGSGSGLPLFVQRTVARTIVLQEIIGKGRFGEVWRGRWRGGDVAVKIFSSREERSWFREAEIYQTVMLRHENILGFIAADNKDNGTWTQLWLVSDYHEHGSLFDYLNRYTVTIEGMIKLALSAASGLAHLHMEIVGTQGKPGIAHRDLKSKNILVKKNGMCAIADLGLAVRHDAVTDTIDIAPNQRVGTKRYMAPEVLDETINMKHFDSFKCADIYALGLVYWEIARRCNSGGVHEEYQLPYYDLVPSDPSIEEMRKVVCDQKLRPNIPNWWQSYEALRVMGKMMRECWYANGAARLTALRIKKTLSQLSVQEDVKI
# Chain of PAK1, construct: aa150-end (Q13153 150-545, looked up): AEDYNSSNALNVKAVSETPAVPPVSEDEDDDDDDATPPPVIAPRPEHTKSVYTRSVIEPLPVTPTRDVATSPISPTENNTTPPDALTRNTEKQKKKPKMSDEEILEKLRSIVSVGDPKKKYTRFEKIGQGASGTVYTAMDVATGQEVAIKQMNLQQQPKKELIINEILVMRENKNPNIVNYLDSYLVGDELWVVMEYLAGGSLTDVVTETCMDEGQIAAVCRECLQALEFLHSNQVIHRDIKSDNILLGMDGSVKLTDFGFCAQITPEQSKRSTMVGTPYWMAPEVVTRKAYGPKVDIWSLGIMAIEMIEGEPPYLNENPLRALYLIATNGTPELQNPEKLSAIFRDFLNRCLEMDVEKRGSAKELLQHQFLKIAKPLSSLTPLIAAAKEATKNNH
# Chain of CIT, construct: aa1-449 (O14578 1-449, looked up): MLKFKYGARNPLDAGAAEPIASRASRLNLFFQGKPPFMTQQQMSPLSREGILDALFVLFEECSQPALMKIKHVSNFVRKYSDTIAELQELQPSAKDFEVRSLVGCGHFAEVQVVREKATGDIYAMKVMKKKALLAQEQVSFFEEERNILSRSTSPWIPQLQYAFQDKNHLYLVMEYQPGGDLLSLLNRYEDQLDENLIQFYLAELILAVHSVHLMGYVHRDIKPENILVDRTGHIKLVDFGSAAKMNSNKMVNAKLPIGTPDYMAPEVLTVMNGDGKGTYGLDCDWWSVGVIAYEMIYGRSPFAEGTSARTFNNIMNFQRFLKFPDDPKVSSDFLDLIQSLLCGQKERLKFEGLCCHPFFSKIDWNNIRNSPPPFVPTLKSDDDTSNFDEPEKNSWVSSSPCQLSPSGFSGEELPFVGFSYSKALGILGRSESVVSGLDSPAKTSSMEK
# Chain of CSNK1A1L, construct: Full length (Q8N752 whole entry, looked up): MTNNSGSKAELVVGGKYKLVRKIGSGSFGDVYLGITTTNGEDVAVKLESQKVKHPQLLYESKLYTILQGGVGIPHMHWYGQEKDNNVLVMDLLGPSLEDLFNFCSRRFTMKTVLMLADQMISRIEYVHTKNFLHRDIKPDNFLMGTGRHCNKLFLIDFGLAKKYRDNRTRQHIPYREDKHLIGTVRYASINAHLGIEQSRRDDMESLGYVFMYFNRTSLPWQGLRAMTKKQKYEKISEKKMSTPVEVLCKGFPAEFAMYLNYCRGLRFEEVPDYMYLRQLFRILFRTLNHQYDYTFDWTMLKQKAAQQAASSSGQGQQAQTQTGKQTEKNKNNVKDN
# Chain of CDKL1, construct: aa2-304 (Q00532 2-304, looked up): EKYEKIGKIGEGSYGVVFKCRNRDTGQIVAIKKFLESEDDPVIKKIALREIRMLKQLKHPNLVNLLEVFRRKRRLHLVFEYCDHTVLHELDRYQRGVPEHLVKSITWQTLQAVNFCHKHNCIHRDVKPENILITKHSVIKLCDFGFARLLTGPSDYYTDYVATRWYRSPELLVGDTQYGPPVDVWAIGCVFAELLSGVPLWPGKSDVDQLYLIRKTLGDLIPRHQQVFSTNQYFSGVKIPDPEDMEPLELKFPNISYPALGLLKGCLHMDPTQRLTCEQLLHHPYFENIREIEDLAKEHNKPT
# Chain of CAMK2D, construct: Full length (Q13557 whole entry, looked up): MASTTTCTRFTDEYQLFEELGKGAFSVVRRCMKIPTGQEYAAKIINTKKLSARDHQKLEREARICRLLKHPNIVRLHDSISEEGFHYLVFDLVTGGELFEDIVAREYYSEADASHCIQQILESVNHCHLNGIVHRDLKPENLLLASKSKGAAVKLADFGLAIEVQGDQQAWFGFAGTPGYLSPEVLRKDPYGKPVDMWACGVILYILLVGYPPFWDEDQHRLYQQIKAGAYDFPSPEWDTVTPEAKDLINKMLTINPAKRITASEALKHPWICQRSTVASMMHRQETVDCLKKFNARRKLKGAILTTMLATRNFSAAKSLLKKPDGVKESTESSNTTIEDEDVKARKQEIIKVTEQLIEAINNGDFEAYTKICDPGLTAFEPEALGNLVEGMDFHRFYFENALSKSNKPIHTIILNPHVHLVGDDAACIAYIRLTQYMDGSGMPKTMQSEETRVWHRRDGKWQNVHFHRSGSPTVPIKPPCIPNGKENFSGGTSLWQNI
# Chain of CSNK1G3, construct: Full length (Q9Y6M4 whole entry, looked up): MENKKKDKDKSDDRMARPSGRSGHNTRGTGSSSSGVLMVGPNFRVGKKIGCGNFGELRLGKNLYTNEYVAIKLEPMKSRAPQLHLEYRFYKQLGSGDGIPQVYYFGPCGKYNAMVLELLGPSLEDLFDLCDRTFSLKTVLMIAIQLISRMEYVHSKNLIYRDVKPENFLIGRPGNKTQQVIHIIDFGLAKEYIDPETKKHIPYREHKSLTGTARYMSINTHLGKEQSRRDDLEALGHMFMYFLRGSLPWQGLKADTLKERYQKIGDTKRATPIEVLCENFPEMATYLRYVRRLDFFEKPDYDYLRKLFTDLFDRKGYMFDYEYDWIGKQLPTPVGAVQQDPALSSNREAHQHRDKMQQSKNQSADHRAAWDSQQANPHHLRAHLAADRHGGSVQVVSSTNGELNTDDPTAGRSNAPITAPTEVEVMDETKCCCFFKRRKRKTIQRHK
# Chain of TSSK1B, construct: Full length (Q9BXA7 whole entry, looked up): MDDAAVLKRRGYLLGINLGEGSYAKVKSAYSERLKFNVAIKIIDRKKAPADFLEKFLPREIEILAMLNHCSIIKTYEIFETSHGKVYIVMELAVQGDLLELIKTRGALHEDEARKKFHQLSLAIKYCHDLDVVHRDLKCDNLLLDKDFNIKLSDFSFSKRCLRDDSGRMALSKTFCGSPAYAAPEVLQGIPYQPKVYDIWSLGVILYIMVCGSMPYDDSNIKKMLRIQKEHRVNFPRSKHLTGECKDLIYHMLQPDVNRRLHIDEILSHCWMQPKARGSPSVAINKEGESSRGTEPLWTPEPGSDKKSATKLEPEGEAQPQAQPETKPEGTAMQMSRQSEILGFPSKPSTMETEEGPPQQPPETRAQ
row,Substance,relative phosphorylation
1,"ACVR1B, construct: aa150-end (from UniProt P36896)",1.45
2,"TSSK1B, construct: Full length (from UniProt Q9BXA7)",0.885
3,"CSNK1A1L, construct: Full length (from UniProt Q8N752)",1.13
4,"CSNK1G3, construct: Full length (from UniProt Q9Y6M4)",1.32

# Same assay, conditions: M fixed; at -2
row,Substance,relative phosphorylation
1,"CIT, construct: aa1-449 (from UniProt O14578)",0.88
2,"PAK1, construct: aa150-end (from UniProt Q13153)",0.36
3,"CAMK2D, construct: Full length (from UniProt Q13557)",1.12
4,"CDKL1, construct: aa2-304 (from UniProt Q00532)",0.774
5,"ACVR1B, construct: aa150-end (from UniProt P36896)",0.497
6,"TSSK1B, construct: Full length (from UniProt Q9BXA7)",0.681
7,"CSNK1A1L, construct: Full length (from UniProt Q8N752)",0.839
8,"CSNK1G3, construct: Full length (from UniProt Q9Y6M4)",0.882

# Same assay, conditions: M fixed; at -3
row,Substance,relative phosphorylation
1,"CIT, construct: aa1-449 (from UniProt O14578)",0.303
2,"PAK1, construct: aa150-end (from UniProt Q13153)",0.485
3,"CAMK2D, construct: Full length (from UniProt Q13557)",0.782
4,"CDKL1, construct: aa2-304 (from UniProt Q00532)",0.549
5,"ACVR1B, construct: aa150-end (from UniProt P36896)",0.998
6,"TSSK1B, construct: Full length (from UniProt Q9BXA7)",0.607
7,"CSNK1A1L, construct: Full length (from UniProt Q8N752)",0.751
8,"CSNK1G3, construct: Full length (from UniProt Q9Y6M4)",0.504

# Same assay, conditions: M fixed; at -4
row,Substance,relative phosphorylation
1,"CIT, construct: aa1-449 (from UniProt O14578)",0.801
2,"PAK1, construct: aa150-end (from UniProt Q13153)",0.744
3,"CAMK2D, construct: Full length (from UniProt Q13557)",1.2
4,"CDKL1, construct: aa2-304 (from UniProt Q00532)",0.937
5,"ACVR1B, construct: aa150-end (from UniProt P36896)",1.06
6,"TSSK1B, construct: Full length (from UniProt Q9BXA7)",1.12
7,"CSNK1A1L, construct: Full length (from UniProt Q8N752)",0.96
8,"CSNK1G3, construct: Full length (from UniProt Q9Y6M4)",0.872

# Same assay, conditions: M fixed; at -5
row,Substance,relative phosphorylation
1,"CIT, construct: aa1-449 (from UniProt O14578)",0.603
2,"PAK1, construct: aa150-end (from UniProt Q13153)",0.587
3,"CAMK2D, construct: Full length (from UniProt Q13557)",1.22
4,"CDKL1, construct: aa2-304 (from UniProt Q00532)",0.96
5,"ACVR1B, construct: aa150-end (from UniProt P36896)",0.968
6,"TSSK1B, construct: Full length (from UniProt Q9BXA7)",1.14
7,"CSNK1A1L, construct: Full length (from UniProt Q8N752)",1.09
8,"CSNK1G3, construct: Full length (from UniProt Q9Y6M4)",0.96

# Same assay, conditions: N fixed; at +1
row,Substance,relative phosphorylation
1,"CIT, construct: aa1-449 (from UniProt O14578)",1.41
2,"PAK1, construct: aa150-end (from UniProt Q13153)",0.895
3,"CAMK2D, construct: Full length (from UniProt Q13557)",0.705
4,"CDKL1, construct: aa2-304 (from UniProt Q00532)",0.871
5,"ACVR1B, construct: aa150-end (from UniProt P36896)",0.774
6,"TSSK1B, construct: Full length (from UniProt Q9BXA7)",1.05
7,"CSNK1A1L, construct: Full length (from UniProt Q8N752)",0.745
8,"CSNK1G3, construct: Full length (from UniProt Q9Y6M4)",0.721

# Same assay, conditions: N fixed; at +2
row,Substance,relative phosphorylation
1,"CIT, construct: aa1-449 (from UniProt O14578)",1.06
2,"PAK1, construct: aa150-end (from UniProt Q13153)",0.885
3,"CAMK2D, construct: Full length (from UniProt Q13557)",1.17
4,"CDKL1, construct: aa2-304 (from UniProt Q00532)",1.05
5,"ACVR1B, construct: aa150-end (from UniProt P36896)",0.902
6,"TSSK1B, construct: Full length (from UniProt Q9BXA7)",0.881
7,"CSNK1A1L, construct: Full length (from UniProt Q8N752)",0.702
8,"CSNK1G3, construct: Full length (from UniProt Q9Y6M4)",1.06

# Same assay, conditions: N fixed; at +3
row,Substance,relative phosphorylation
1,"CIT, construct: aa1-449 (from UniProt O14578)",0.882
2,"PAK1, construct: aa150-end (from UniProt Q13153)",0.971
3,"CAMK2D, construct: Full length (from UniProt Q13557)",0.981
4,"CDKL1, construct: aa2-304 (from UniProt Q00532)",1
5,"ACVR1B, construct: aa150-end (from UniProt P36896)",0.741
6,"TSSK1B, construct: Full length (from UniProt Q9BXA7)",1.92
7,"CSNK1A1L, construct: Full length (from UniProt Q8N752)",0.795
8,"CSNK1G3, construct: Full length (from UniProt Q9Y6M4)",1.05

# Same assay, conditions: N fixed; at +4
row,Substance,relative phosphorylation
1,"CIT, construct: aa1-449 (from UniProt O14578)",1.14
2,"PAK1, construct: aa150-end (from UniProt Q13153)",1.11
3,"CAMK2D, construct: Full length (from UniProt Q13557)",1.03
4,"CDKL1, construct: aa2-304 (from UniProt Q00532)",1.08
5,"ACVR1B, construct: aa150-end (from UniProt P36896)",0.975
6,"TSSK1B, construct: Full length (from UniProt Q9BXA7)",0.793
7,"CSNK1A1L, construct: Full length (from UniProt Q8N752)",0.777
8,"CSNK1G3, construct: Full length (from UniProt Q9Y6M4)",0.947

# Same assay, conditions: N fixed; at -1
row,Substance,relative phosphorylation
1,"CIT, construct: aa1-449 (from UniProt O14578)",1.17
2,"PAK1, construct: aa150-end (from UniProt Q13153)",1.19
3,"CAMK2D, construct: Full length (from UniProt Q13557)",1.23
4,"CDKL1, construct: aa2-304 (from UniProt Q00532)",1.01
5,"ACVR1B, construct: aa150-end (from UniProt P36896)",0.963
6,"TSSK1B, construct: Full length (from UniProt Q9BXA7)",0.98
7,"CSNK1A1L, construct: Full length (from UniProt Q8N752)",0.997
8,"CSNK1G3, construct: Full length (from UniProt Q9Y6M4)",0.781

# Same assay, conditions: N fixed; at -2
row,Substance,relative phosphorylation
1,"CIT, construct: aa1-449 (from UniProt O14578)",0.779
2,"PAK1, construct: aa150-end (from UniProt Q13153)",0.518
3,"CAMK2D, construct: Full length (from UniProt Q13557)",0.956
4,"CDKL1, construct: aa2-304 (from UniProt Q00532)",0.778
5,"ACVR1B, construct: aa150-end (from UniProt P36896)",0.716
6,"TSSK1B, construct: Full length (from UniProt Q9BXA7)",1.22
7,"CSNK1A1L, construct: Full length (from UniProt Q8N752)",0.798
8,"CSNK1G3, construct: Full length (from UniProt Q9Y6M4)",1.57

# Same assay, conditions: N fixed; at -3
row,Substance,relative phosphorylation
1,"CIT, construct: aa1-449 (from UniProt O14578)",0.4
